From patent publication US20190322758A1 (IMMUNOPHARMACEUTIC INSTITUTE OF HEFEI RUIDA, published 2019)
Changes are numbered by the printed parent chain.

Target: T1, recombinant LunX protein (antigenic protein fragment of SEQ ID NO: 9 with C-terminal 6His-Tag) (human, UniProt Q9NP55 103-256)
T1 construct: Expressed in E. coli Rosetta (DE3) from pET-22b(+); also called LunX prokaryotic recombinant fusion protein; human LunX protein
T1 sequence: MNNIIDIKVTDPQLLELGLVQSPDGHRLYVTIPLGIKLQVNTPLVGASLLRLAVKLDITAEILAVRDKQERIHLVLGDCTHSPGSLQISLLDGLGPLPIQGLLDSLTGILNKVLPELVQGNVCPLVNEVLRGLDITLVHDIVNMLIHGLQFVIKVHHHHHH
Test: hybridoma screening, ELISA (and FACS)

B1: anti-LunX murine monoclonal antibody PrAb2 (hybridoma Ab2) (antibody, V domains shown)
VH: QVQLQQSGPELVKPGASVKISCKTSGYAFSRSWMSWVKQRPGQGLEWIGRIYPGDGDTKYSGKFEGKATLTADKSSSTAYMQLSSLTSVDSAVYFCARSGGIQGYGMDYWGQGTSVTVSS
VL: DIVVTQSPAALAVSLGQRATISCRASKSVSTSGYTYMHWYQQKPGQPPKLLIYLASKLESGVPARFSGSGSGTDFTLNIHPVEEEDAATYYCQHSRDLTFGSGTKLEIKR
notes: Mouse monoclonal antibody from hybridoma Ab2; heavy chain about 45 kDa, light chain about 25 kDa
- binding result: binds

B2: anti-LunX murine monoclonal antibody PrAb1 (hybridoma Ab1) (antibody, V domains shown)
VH: B1 VH with K59N, S61N, E65K
VL: B1 VL with V4L, A10S, S32A, T35S, P47T, D97E
notes: Mouse monoclonal antibody from hybridoma Ab1; heavy chain about 45 kDa, light chain about 25 kDa
- binding result: binds
